Like-named read-outs stand apart in the source and are kept apart here. Blank lines part the entries; values can stand above or below the molecule they belong to. Non-standard residues stand in square brackets, D forms with d. No end group written: not given here. Lys(Me3) = C[N+](C)(C)CCCC[C@H](N)C(=O)O
Experiments:
Experiment in all cases: ITC
[1] = molecular target: TAF3 PHD domain M900Q/M907Q (the paper's wild-type construct) (UniProt Q5VWG9)
[2] = molecular target: TAF3 PHD domain M900Q/M907Q with norleucine in place of M882 (Nle mutant) (UniProt Q5VWG9)
[3] = molecular target: TAF3 PHD domain M900Q/M907Q with selenomethionine in place of M882 (SeMet mutant) (UniProt Q5VWG9)
[4] = molecular target: BPTF PHD domain Y23M
[5] = molecular target: DIDO1 (death inducer obliterator 1) PHD domain, wild type
[6] = molecular target: BPTF PHD domain Y23M; remark: listed apart in the source
[7] = molecular target: DIDO1 PHD domain M35C (UniProt Q9BTC0)
[8] = molecular target: DIDO1 PHD domain with selenomethionine in place of methionine (SeMet mutant) (UniProt Q9BTC0)
[9] = molecular target: TAF3 PHD domain M882A (UniProt Q5VWG9)
[10] = molecular target: TAF3 PHD domain M900Q/M907Q (the paper's wild-type construct) (UniProt Q5VWG9); remark: listed apart in the source
[11] = molecular target: TAF3 PHD domain M900Q/M907Q with norleucine in place of M882 (Nle mutant) (UniProt Q5VWG9); remark: listed apart in the source
[12] = molecular target: TAF3 PHD domain M900Q/M907Q with selenomethionine in place of M882 (SeMet mutant) (UniProt Q5VWG9); remark: listed apart in the source
[13] = molecular target: T1, DIDO1 (death inducer obliterator 1) PHD domain, wild type (UniProt Q9BTC0 266-325)
T1 sequence: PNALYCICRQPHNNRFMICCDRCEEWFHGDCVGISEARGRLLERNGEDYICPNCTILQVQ

- Kd [1]: 10.7 µM
- Kd [2]: 13.7 µM
- Kd [3]: 8.3 µM
Molecule: histone H3 tail peptide with tert-butyl norleucine in place of K4me3 (H3K4tBuNle), ARTX… with X = tBuNle

- Kd [4]: 7.48 µM
Molecule: Histone H3 peptide with tert-butyl norleucine in place of K4 (H3K4tBuNle 1-13, with a C-terminal Tyr)
- Kd [5]: 2900 nM

- Kd [6]: 7.5 µM
- Kd [7]: 36 µM
- Kd [8]: 4.2 µM
- Kd [9]: 120 µM
- Kd [10]: 1050 nM
- Kd [11]: 1700 nM
- Kd [12]: 840 nM
Molecule: ART[Lys(Me3)]QTARKSTGGY [histone H3 tail peptide trimethylated at K4 (H3K4me3), ARTX… with X = Kme3]

Molecule: ART[Lys(Me3)]QTARKSTGGY [histone H3 tail peptide trimethylated at K4 (H3K4me3), ARTXQTARKSTGGY with X = Kme3]
- Kd [13]: 2280 nM
